Test [1] has as its target T1, murine ApoE (mouse, UniProt P08226 19-311).
T1 sequence (looked up): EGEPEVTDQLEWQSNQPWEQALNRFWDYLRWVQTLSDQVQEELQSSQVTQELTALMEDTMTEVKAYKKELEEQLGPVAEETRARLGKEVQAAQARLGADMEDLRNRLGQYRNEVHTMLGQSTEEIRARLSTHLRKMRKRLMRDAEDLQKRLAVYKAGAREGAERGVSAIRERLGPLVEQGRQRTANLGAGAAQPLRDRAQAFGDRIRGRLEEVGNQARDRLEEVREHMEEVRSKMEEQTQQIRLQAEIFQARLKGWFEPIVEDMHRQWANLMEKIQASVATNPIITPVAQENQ
The test can be described thus: Western blot of mouse brain lysates. An excerpt: Brain lysates from apoE KO mice or mice expressing human apoE3, human apoE4 or murine apoE were immunoblotted with HJ151, HJ152, HJ153, and HJ154. A commercial apoE antibody GA-50 was used as a positive control.

Test [2] has as its target T2, heat-induced aggregates of ApoE4 (human, UniProt P02649 19-317).
T2 construct: mature; aggregated state of the recombinant protein; also called ApoE4 incubated at 40 C for 24 hr; heat-treated ApoE4
The test can be described thus: ELISA: ApoE4 incubated at 40 C for 24 hr on the plate, antibody titrated, OD650. As to the method:
(§1) 1: untreated ApoE4. 2: ApoE4 that has been incubated at 40° C. for 24 hr. Supernatant(S) and pellet (P) from ultracentrifugation were resolved on SDS-PAGE and stained by Coomassie blue. (D) Binding of HJ156 to different preparations of ApoE4 loaded at the same concentration on the ELISA plate. Sup of untreated: Supernatant fraction of untreated ApoE4 from ultracentrifugation. Sup/Pel of 24h 40C: Supernatant/pellet fraction of ApoE4 incubated at 40° C. for 24 hour. (E) Binding of HJ156 to untreated and 40° C. incubated ApoE4 with and without denaturation by 1% SDS or 4M guanidine HCl.
(§2) In order to test whether HJ151 and HJ156 bind to some form of ApoE in the brain, unfixed frozen brain sections from APPPS1/APOE4 or APPPS1/EKO mice using HJ151 and HJ156 (FIG. 38A). The presence of Aβ plaques was confirmed with Aβ immunostaining using anti-Aβ antibody HJ3.4 on the sections from the same brain. […] Next, the ability of HJ156 to bind to an aggregated form of ApoE induced by incubation at 40° C. was queried. The binding of untreated ApoE to HJ151, HJ153 or HJ156 was compared to the binding of ApoE incubated at 40° C. to HJ151, HJ153 or HJ156. HJ153 bound to untreated ApoE or ApoE incubated at 40° C. similarly while HJ151 and HJ156 preferentially bound to ApoE incubated at 40° C. (FIG. 38B). […] Solubilization of the ApoE aggregates reduced their binding to HJ156. […]
A general note: In an ELISA, binding on a coated surface is turned into a signal by an enzyme label.

Test [3] deals with T3, recombinant alipidated human ApoE4 (human, UniProt P02649 19-317).
T3 construct: mature; full length recombinant protein made in E. coli or bought; biotinylated for SPR; position 112 is counted on the mature protein, not on the precursor entry; also called recApoE; non-lipidated ApoE4
The test can be described thus: ELISA: untreated recombinant ApoE4 on the plate, antibody titrated, OD650. As to the method:
as §1, §2

Test [4] addresses T3, recombinant alipidated human ApoE4. The test can be described thus: SPR, biotinylated recombinant apoE4 captured on a streptavidin chip; column Apparent KD (M). As to the method: (§3) ELISA plates were coated with 0.5 μg/ml of recombinant apoE2 (square), apoE3 (open circle), or apoE4 (closed circle). Then different concentrations of (A) HJ151, (B) HJ153, (C) HJ154, or (D) HJ156 were loaded on the plates. Horse-radish peroxidase labeled goat anti-mouse secondary antibodies were used to detect binding. […] HJ151 is specific for ApoE4 and HJ156 binds only ApoE3 and ApoE4. FIG. 5E-H are graphs depicting surface plasmon resonance profiles for various antibodies. Anti-ApoE antibodies were serially diluted 3-fold (starting at 100 nM for HJ153 (E), and 1000 nM for HJ151 (F), and […] (G)) for detection of binding to biotinylated-recombinant apoE4 captured on a streptavidin chip. Samples were injected at a flow rate of 30 μl/minute. (H) Apparent KD values of HJ151, HJ153 and HJ156 were calculated based on the SPR experiment.
(§4) ELISA plates were coated with 0.5 μg/ml of recombinant apoE2, apoE3, or apoE4. Then different concentrations of HJ151 (FIG. 5A), HJ153 (FIG. 5B), HJ154 (FIG. 5C), or HJ156 (FIG. 5D) were loaded on the plates. Horse-radish peroxidase labeled goat anti-mouse secondary antibodies were used to detect binding. […] HJ151 is specific for ApoE4 and HJ156 binds only ApoE3 and ApoE4. Surface plasmon resonance profiles for various antibodies was also performed.
(In general: Surface plasmon resonance follows binding to a sensor surface in real time, without labels.)

The target is the same in test [5]. The test can be described thus: SPR, biotinylated recombinant apoE4 captured on a streptavidin chip; column Kd (1/s). As to the method: as §3, §4
Test [6] shares this target. The test is described as follows: SPR (Biacore T200), biotinylated ApoE4 captured on anti-biotin mAb chip, antibody injected, 1:1 fit. As to the method:
The affinity of several anti-ApoE antibodies for ApoE4 was determined by surface plasmon resonance using a BIAcore T200. Anti-biotin monoclonal mouse antibody was immobilized on a Biacore Series S CM5 sensor chip. Biotinylated recombinant alipidated ApoE4 was then captured on to the chip. Serial dilutions of each antibody were injected at a flow rate of 30 μl/min. Each sample was analyzed, for example, with 3-minute association and 10-minute dissociation. After each injection the chip was regenerated using 3 M MgCl₂ or another appropriate buffer. Binding response was corrected by subtracting the response units (RUs) from a flow cell capturing an irrelevant IgG at similar density. A 1:1 Languir model of simultaneous fitting of Kₒₙ and Koff was used for kinetics analysis. Recombinant alipidated ApoE4 was either expressed in soluble form in E. coli and then purified, or purchased from a commercial supplier.

The target is the same in test [7]. The test is described as follows: direct ELISA on coated recombinant alipidated ApoE (0.5 ug/ml). As to the method:
(§5) ELISA dose response curves were generated for several anti-ApoE antibodies. Briefly, plates were coated overnight with full length recombinant alipidated ApoE2, ApoE3, or ApoE4 (0.5 μg/ml). The following days, plates were washed, blocked and then incubated with an anti-ApoE antibody. A goat, anti-mouse IgG-HRP antibody was used for secondary detection. Recombinant alipidated ApoE was either expressed solubly in E. coli and then purified, or purchased from a commercial supplier.

Test [8] has as its target T4, recombinant alipidated human ApoE2 (human, UniProt P02649 19-317).
T4 construct: mature; full length recombinant protein made in E. coli or bought
Described as above. As to the method: as §5

Test [9] concerns the target T5, recombinant alipidated human ApoE3 (human, UniProt P02649 19-317).
T5 construct: mature; full length recombinant protein made in E. coli or bought
The description is as above. As to the method: as §5

Test [10] deals with T3, recombinant alipidated human ApoE4. The test can be described thus: SPR, biotinylated recombinant apoE4 captured on a streptavidin chip; column Ka (1/Ms). As to the method: as §3, §4

T3 sequence (P02649 19-317 C130R): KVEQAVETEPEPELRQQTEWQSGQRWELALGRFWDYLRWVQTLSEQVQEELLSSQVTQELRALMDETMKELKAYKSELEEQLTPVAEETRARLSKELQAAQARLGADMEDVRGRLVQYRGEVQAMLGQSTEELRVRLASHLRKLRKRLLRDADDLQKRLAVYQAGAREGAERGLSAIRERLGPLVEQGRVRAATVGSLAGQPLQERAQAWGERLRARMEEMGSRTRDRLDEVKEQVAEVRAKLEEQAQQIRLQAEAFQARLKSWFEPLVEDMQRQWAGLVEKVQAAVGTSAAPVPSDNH
T4 sequence (P02649 19-317 R176C): as the sequence (P02649 19-317 C130R) above, with R112C, R158C counted along it
T5 sequence (P02649 19-317): as the sequence (P02649 19-317 C130R) above, with R112C counted along it
T2 sequence (P02649 19-317 C130R): as the sequence (P02649 19-317 C130R) above

B1: HJ153 (antibody, V domains shown)
VH: QVQLQQPGAELVKPGASVKLSCKASGYTFTSYWMHWVKQRPGRGLEWIGEIDPSDGFTYNNQNFKDKSTLTVDRSSGTAYLQLSSLTSEDSAVYYCAGSLGRIGLAYWGHGTLVTVSA
VL: QIVLTQSPAIMSASPGEKVTISCSASSSVTYMYWYQQKPGASPKSWIYRTSNLASGVPARFSGSGSGTSYSLTISSMEAEDAATYYCQQFQSYPLTFGAGTKLELKR
notes: murine monoclonal antibody from hybridoma; also called HJ153B (biotinylated)
With B1, the binding result in test [1] was “no binding”. The results for the concentration giving a half-maximal response (EC50 (read off the curve)) in [2] and in test [3] were around 0.2 nM and around 0.3 nM, respectively. Besides, the Kd in test [4] came out at 0.319 nM; in test [6], 0.43 nM. The results for the koff in test [5] and in test [6] were 0.000211 s⁻¹ and 0.000346 s⁻¹, respectively. For the same molecule, the values for the kon in test [6] and in test [10] were 804000 M⁻¹ s⁻¹ and 662000 M⁻¹ s⁻¹, respectively. Further, the EC50 in test [7] stood at 0.03 nM; in [8], 0.02 nM; in [9], 0.02 nM.

In general, EC50 (read off the curve) refers to the concentration at which the effect is half-maximal. For orientation: koff means the rate constant with which the complex falls apart. A word on the kon: it is the rate constant with which the complex forms. In general, EC50 refers to the concentration giving half of the maximal effect.
